Assay: soluble on expression in E. coli; label from the status in PepcDB or PDB records

Soluble on expression in E. coli, not soluble:
MSLDKPVIKISTENVDLIYRVGDNGRLYQSYLGKRLNHATDIAHLPQGSEAYLTHGMEDYFEPAIHIVHNDGNPSTLLKYVSHTRNQVSPGVDEVVITMQDDKYPVTVKLHYVAYQKENLIKTFTEISHREKKPVQLHKYASSMLHLNRANYFLTEFSGDWASEAHVKEQPLEFGKKTIDTKLGARANMFCSPFFQLALDGKSEENQGEVLVGTLGWTGNFSFVFEVDNKNELRVISGINPYASEYSLKPNEIFRTPDFYFTYSFKGKGQASRNFHDWARKYQVKDGNQTRMTLLNNWEATYFDFDEAKLVKLMDDAVELGVDMFLLDDGWFANKYPRSGDHQGLGDWDETADKLPHGIGYLTEAAKKKGIKFGIWIEPEMVNPKSELYEKHKDWVIHLPNRDEYYFRNQLVLDLSNPKVQDYVFGVVDNLMTKYPDIAFFKWDCNSPITNIYSVYLKDKQSHLYIDYVRGLYNVLERVKAKYPDLPMMLCSGGGGRSDYEALSYFTEFWPSDNTDPIERLFIQWGFSQVFPAKTMCAHVTTWNKNSSVKFRTDVAMMCKLGFDIKLADMSKDDETYCRTAVQNYNRLKPVVLEGDMYRLVSPYGSNHTSTMYVGKDKDKAVVFAFDIHPRYAEKILPVRLQGLDADKMYRVKEINLMPGANSEGHHHHHH

Soluble on expression in E. coli, soluble:
MSLDDQITNAAEKGVTDRFYGLIPNGYLFIENGLISAFGPMSALQENLTNSTAMSQIDDAIDAAGRLLTPALIDCHTHVVYGGHRALEFEMRLKGASYAEMAKAGGGIVSTVSATRSQSVEQLVQGALARVDALIAEGISLIEIKSGYGLDIETELRMLRAARSIEAARPVRVITSFLGAHAMPPGEDMSPEGYIEKTCIPALHQAHKEGLVDAVDGFCESIAFSADQIVPLFNVAAELGLPVKLHAEQLTRCGGSLLAASHKALSVDHVEYANKEDVRALAAAGCSAVLLPGAFYTLRETQKPPVALFRDQGVPMAIATDANPGSSPMTSLLLAMNMGCTLFGMTPYEALAGVTRNAARALGVSDSGMLRPGLRADLALWDVAHPAELAYRIGFNPLHRRIFGGQIAEGHHHHHH
MSLDFHGVFPYLVSPVDAEGRVRADVMGRLCDDLIQAGVHGLTPLGSTGEFAYLGTAQREAVVRATIEAAQRRVPVVAGVASTSVADAVAQAKLYEKLGADGILAILEAYFPLKDAQIESYFRAIADAVEIPVVIYTNPQFQRSDLTLDVIARLAEHPRIRYIKDASTNTGRLLSIINRCGDALQVFSASAHIPAAVMLIGGVGWMAGPACIAPRQSVALYELCKAQRWDEALMLQRKLWRVNEAFAKFNLAACIKAGLALQGYDVGDPIPPQAALTAEERKAVEKVLAEIAEGHHHHHH
MSLDISFQIQDAVASVIRAPLASPFRIATGQHDELENVFLKLTTRDGVSGYGEAAVASHITGETVPGTLANLQNAAAALRGQTVDDAESACRQFAAAFAGNHAGLAALEMALLDLSSRVRGIPFYRLFAPVAALEPRLAFSTDITVVIGSLDEARATAREFASRGFKAFKIKIGRDEQLDLARVLAVHEIAPDSQIILDANMGFSAGSMLAFLDRLAAKGVRPVLLEQPVPKMDWDGLSEITAALTGSETLVCADESVGSLADARRAIDSNAVSAINVKFMKSGILEGAEIARLAASRGIRLMLGAMMESALAVTASAHFAAGLACFDYLDMDTTFFLKGELAHSPYLDEHGRFDLHDAGPGIGVEPRFSEGHHHHHH
MSLDKVERRLYELYEKAINYEPLSKEEALYILEVDDIYVPFLVHLAQKIKKHYFPENEVEFCSIINAKSGACSEDCKFCAQSKYYKTPINVYNLVPVDEMVEGAIRGVEFGANRYCIVLSGKSATKEEVERITEAVKEIKNEGLPINVCVSAGTLDEESLKKLKEAGVKRINHNLETSRNFFKNIVTTHTWEDRYETIKRIKKVGLSTCSGGIFGMGESNEDRVDMALTYRELEVDSIPLNFLMPIEGTPMENAPGVEVMEALKIIAMFRFTNPKAELRLCGGREQNLRDFHGMATLMTNAMMVGGYLTRAGRDIKKDYQLLKDLKAKRKVSVEEGHHHHHH
MSLDKVLVGYWHNWKSTGKDGYKGGSSADFNLSSTQEGYNVINVSFMKTPEGQTLPTFKPYNKTDTEFRAEISKLNAEGKSVLIALGGADAHIELKKSQESDFVNEIIRLVDTYGFDGLDIDLEQAAIEAADNQTVIPSALKKVKDHYRKDGKNFMITMAPEFPYLTSSGKYAPYINNLDSYYDFINPQYYNQGGDGFWDSDLNMWISQSNDEKKEDFLYGLTQRLVTGTDGFIKIPASKFVIGLPSNNDAAATGYVKDPNAVKNALNRLKASGNEIKGLMTWSVNWDAGTNSNGEKYNNTFVNTYAPMLFNNEGIITITTDPNSSSVDKLAAALEHHHHHH

Reference: the DeepSol protein solubility set
